Measured values taken from patent US20260199576A1 (KYOTO UNIVERSITY, published 2026).

B1: UC antibody 5 (antibody, V domains shown)
VH: QVQLVQSGAEVKKPGASVKVSCKASGHTFSSFGISWVRQAPGQGLEWMGWISAYNGNTNSAQKFQGRVTMTTDTSTSTAYMELRSLRSDDTAVYYCARDRGFRGDTAMIKGGMDVWGQGTTVTVSS
VL: VLTQPPSVSVSPGQTASITCSGDKLGDKYACWYQQKSGQAPVLVIYQDSKRPSGIPERFSGSNSGNTATLTISGTQAMDEADYYCQAWDSSTALVFGGGTKLTVL
notes: Human monoclonal IgG from a UC patient, expressed in CHO cells
B2: UC antibody 6 (antibody, V domains shown)
VH: QVQLVQSGAEVKKPGASVKVSCKASGHTFSSFGISWVRQAPGQGLEWMGWISAYNGNTNSAQKFQGRVTMTTDTSTSTAYMELRSLRSDDTAVYYCARDRGFRGDTAMIKGGMDVWGQGTTVTVSS
VL: QSVLTQPPSVSGAPGQRVTISCTGSSSTIGANNDVHWYQQLPGTAPKLLIYGNKNRPSGVSDRFSGSKSGTSASLAITGLQAEDEADYYCQSYDSSLSDLYVFGTGTKVTVL
notes: as for B1
B3: UC antibody 7 (antibody, V domains shown)
VH: VQLVESGGGVVQPGRSLRLSCAASGFTFSSYGMHWVRQAPGKGLEWVAFISYDGINKYYADSVKGRFTISRDNSKDTLYLQMNSLRAEDTAVYYCAKVIPRIRGSGDKAGIKDYYYYGMDVWGQGTTVTVSS
VL: EIVLTQSPATLSLSPGERATLSCRASQSVSSYLAWYQQKPGQAPRLLIYDASNRATGIPARFSGSGSGTDFTLTISSLEPEDFAVYYCQQRSNWLTFGGGTKVEIK
notes: as for B1
B4: UC antibody 8 (antibody, V domains shown)
VH: QVQLVESGGGVVQPGRSLRLSCAASGFTFSSYAMHWVRQAPGKGLEWVAFISYDGINKYYADSVKGRFTISRDNPKDTLYLQMNSLRAEDTAVYYCAKVIPRIRGSGDKAGIKDYYYYGMDVWGRGTTVTVSS
VL: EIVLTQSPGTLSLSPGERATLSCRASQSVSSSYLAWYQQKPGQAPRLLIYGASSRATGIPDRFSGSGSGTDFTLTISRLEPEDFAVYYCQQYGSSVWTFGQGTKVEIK
notes: as for B1
B5: UC antibody 9 (antibody, V domains shown)
VH: QVQLVESGGGVVQPGRSLRLSCAASGFTFSSYGMHWVRQAPGKGLEWVAFISYDGINKYYADSVKGRFTISRDNSKDTLYLQMNSLRAEDTAVYYCAKVIPRIRGSGDKAGIKDYYYYGMDVWGQGTTVTVSS
VL: QSVLTQPPSVSAAPGQKVTISCSGSSSNIGNNYVSWYQQLPGTAPKLLIYDNNKRPSGIPDRFSGSKSGTSATLGITGLQTGDEADYYCGTWDSSLSAVVFGGGTKLTVL
notes: as for B1
B6: PSC antibody 1 (antibody, V domains shown)
VH: QVQLVQSGAEVKKPGASVKVSCKASGHTFSSFGISWVRQAPGQGLEWMGWISAYNGNTNSAQKFQGRVTMTTDTSTSTAYMELRSLRSDDTAVYYCARDRGFRGDTAMIKGGMDVWGQGTTVTVSS
VL: QSALTQPASVSGSPGQSITISCTGTSSDVGGYNYVSWYQQHPGKAPQLIIYDVSKRPSGVSNRFSGSRSGNTASLTISGLQAEDEADYYCSSYTSSSTYVFGTGTKVTVL
notes: Human monoclonal IgG from a PSC patient, expressed in CHO cells
B7: UC antibody 2 (antibody, V domains shown)
VH: EVQLVESGGGLVKPGGSLRVSCVVSGFTITNAWMSWVRQAPGKGLEWVGRSKSKTDGGTTDYIAPVKGRFTISRDDSKNTLYLEMNSLKTEDTAVYYCATDRPLKLRGRDYNYYVMDVWGQGTTVTVSS
VL: DIQMTQSPSSLSASVGDRVTITCRASQSIARSLNWYQQKPGKAPNLLIYAASTLQSGVPSRFSGSGSGTDFTLTIGSLQPEDFATYSCQQSSSSPLTFGGGTRVEIK
notes: as for B1
B8: UC antibody 3 (antibody, V domains shown)
VH: QVQLVESGGGVVQPGRSLRVSCAASGFTFSIYGMHWVRQAPGKGLEWVAVISSDGTNQYYADSVKGRFTISRDNSNNTVYLQMNSLGGEDTAVYYCAKDRGRRGDSGWYRHFDYWGQGTLVTVSS
VL: QSVLTQPPSVSAAPGQKVTISCSGSSSNNGNNYVSWYQQVPGTAPKLLIYDNNKRPSGIPDRFSGSKSGTSATLGITGLQTGDEADYYCGTWDSSLSAVVFGGGTKLTVL
notes: as for B1
B9: UC antibody 4 (antibody, V domains shown)
VH: QVQLVQSGAEVKKPGASVKVSCKASGYTFSSFGISWVRQAPGQGLEWMGWISAYNGNTNSAQKFQGRVTMTTDTSTSTAYMELRSLRSDDTAVYYCARDRGFRGDTAMIKGGMDVWGQGTTVTVSS
VL: SYELTQPPSVSVSPGQTARITCSGDALPKQYAYWYQQKPGQAPVLVIYKDSERPSGIPERFSGSSSGTMATLTISGAQVEDEGDYYCSSTDSNSQRVFGGGTKLTVL
notes: as for B1

biological target: T1, Biotinylated human integrin αvβ6 (ACROBiosystems, product number IT6-H82E4) (human, UniProt P06756 31-992; P18564 22-707, biotinylated (Avi tag at the C-terminus) ; Biotin on the Avi tag at the C-terminus of the αv chain; the tag is not in the letters.); assay: BLI (Octet RED96), biotinylated integrin αvβ6 on biosensor, antibody in solution
T1 construct: Bought heterodimer; also called biotinylated integrin αvβ6; not shown: basic tail on the β6 chain
T1 sequence (P06756 31-992 limits assumed, chain 1 of 2): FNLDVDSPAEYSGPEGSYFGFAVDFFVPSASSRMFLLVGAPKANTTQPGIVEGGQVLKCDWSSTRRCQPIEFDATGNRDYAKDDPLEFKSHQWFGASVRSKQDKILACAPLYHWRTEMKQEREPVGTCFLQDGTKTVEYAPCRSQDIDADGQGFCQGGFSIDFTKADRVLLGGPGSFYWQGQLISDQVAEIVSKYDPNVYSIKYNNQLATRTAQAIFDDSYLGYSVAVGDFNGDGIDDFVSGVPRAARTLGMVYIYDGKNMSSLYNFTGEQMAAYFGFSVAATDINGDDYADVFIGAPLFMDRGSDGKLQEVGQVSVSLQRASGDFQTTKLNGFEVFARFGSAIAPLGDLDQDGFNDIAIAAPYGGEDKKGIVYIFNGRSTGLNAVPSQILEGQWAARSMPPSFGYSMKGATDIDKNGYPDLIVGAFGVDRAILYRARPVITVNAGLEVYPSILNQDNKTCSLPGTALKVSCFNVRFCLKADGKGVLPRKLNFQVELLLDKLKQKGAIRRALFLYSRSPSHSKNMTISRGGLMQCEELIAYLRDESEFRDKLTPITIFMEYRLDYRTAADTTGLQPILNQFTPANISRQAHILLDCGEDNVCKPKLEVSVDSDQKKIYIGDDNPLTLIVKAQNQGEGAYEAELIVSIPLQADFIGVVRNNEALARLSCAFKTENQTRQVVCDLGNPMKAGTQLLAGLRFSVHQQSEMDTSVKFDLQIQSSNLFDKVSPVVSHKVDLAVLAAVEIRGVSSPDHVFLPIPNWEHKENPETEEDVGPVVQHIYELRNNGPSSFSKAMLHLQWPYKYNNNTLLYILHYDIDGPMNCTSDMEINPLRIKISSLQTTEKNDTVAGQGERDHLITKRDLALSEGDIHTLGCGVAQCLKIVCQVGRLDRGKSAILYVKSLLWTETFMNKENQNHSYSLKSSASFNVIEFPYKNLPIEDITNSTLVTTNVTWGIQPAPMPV
T1 sequence (P18564 22-707 limits assumed, chain 2 of 2): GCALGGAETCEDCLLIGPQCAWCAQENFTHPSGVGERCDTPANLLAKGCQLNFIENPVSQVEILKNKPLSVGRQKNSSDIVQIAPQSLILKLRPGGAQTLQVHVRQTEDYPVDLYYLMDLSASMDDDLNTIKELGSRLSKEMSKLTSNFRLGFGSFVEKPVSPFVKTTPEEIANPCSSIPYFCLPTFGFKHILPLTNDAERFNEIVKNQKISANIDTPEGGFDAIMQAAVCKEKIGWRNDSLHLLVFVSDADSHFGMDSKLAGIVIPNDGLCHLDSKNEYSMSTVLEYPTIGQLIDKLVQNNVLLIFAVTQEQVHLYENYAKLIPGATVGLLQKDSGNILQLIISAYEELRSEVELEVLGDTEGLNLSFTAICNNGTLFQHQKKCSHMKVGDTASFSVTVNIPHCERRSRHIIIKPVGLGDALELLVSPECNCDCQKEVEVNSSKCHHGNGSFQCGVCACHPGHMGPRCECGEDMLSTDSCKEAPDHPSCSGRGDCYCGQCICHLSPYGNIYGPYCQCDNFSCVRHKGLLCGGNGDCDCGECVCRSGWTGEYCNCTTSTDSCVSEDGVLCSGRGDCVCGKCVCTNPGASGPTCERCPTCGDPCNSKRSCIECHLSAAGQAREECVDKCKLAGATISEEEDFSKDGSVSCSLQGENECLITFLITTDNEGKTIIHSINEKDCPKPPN
Procedure: Next, the binding affinity of the obtained anti-integrin αvβ6 monoclonal antibodies derived from UC or PSC patients was determined. The KD value was measured by biolayer interferometry using Octet RED96 (Sartorius). A 100 nM solution of the antibody, and serially diluted solutions of biotinylated integrin αvβ6 protein in the range of 200 to 6.25 nM were prepared using a buffer containing 20 mM Tris, 150 mM NaCl, 1 mM CaCl₂, 1 mM MgCl₂, 0.1% human serum albumin (014-27604; Fujifilm Wako Pure Chemical Industries, Ltd.) and 0.02% Tween 20 (1610781; Bio-Rad), and added to a 96-well plate (Greiner; 655209) at 200 μL/well. The biotinylated integrin αvβ6 was allowed to bind for 5 minutes to a biosensor (18-5136; Sartorius) soaked in the buffer. After washing of the biosensor, the biosensor was immersed in each antibody solution for 5 minutes (binding reaction). Then, the sensor was immersed in the buffer solution for 1 minute (dissociation reaction). The binding dissociation constant (KD value) between “integrin αvβ6-each monoclonal antibody” was determined using the analysis software (Octet BLI Analysis) attached to the device.

Row | Binder | Kd [nM]
1 | B1 | 8.25
2 | B2 | 20.8
3 | B3 | 5.18
4 | B4 | 10.6
5 | B5 | 5.96
6 | B6 | 8.91
7 | B7 | 1.95
8 | B8 | 15
9 | B9 | 3.15

biological target: T2, human integrin αvβ6 (ACROBiosystems, product number IT6-H52E1) (human, UniProt P06756 31-992; P18564 22-707); assay: competition ELISA: integrin αvβ6 coated, peptide RGDS 0-100 µg/mL added together with PSC patient IgG 1:100 (competitor); bound human IgG detected (A450)
T2 construct: also called histidine-tagged integrin αvβ6; histidine-tagged extracellular domain protein of integrin αvβ6; not shown: linker and basic tail on the β6 chain
T2 sequence (P06756 31-992 limits assumed, chain 1 of 2): as the sequence (P06756 31-992 limits assumed, chain 1 of 2) above
T2 sequence (P18564 22-707 limits assumed, chain 2 of 2): as the sequence (P18564 22-707 limits assumed, chain 2 of 2) above
Procedure: A microtiter plate was coated with 100 μL/well of 2 μg/mL integrin αvβ6 overnight at 4° C., and then blocked. Peptide RGDS (SEQ ID NO: 9: Arg-Gly-Asp-Ser) or RGES (SEQ ID NO: 10: Arg-Gly-Glu-Ser) as RGD motif or RGE motif (control) was added together with 100 μL of patient-derived IgG dilution (1:100) to the plate, and the plate was incubated at room temperature for 60 minutes. After washing, 100 μl/well of an HRP-labeled anti-human IgG antibody (50,000-fold dilution; ab6759; Abcam) was added to the plate and the plate was incubated at room temperature for 60 minutes. After washing, the plate was incubated with 3,3′,5,5′-tetramethylbenzidine for 7 minutes, and an absorbance density (OD value) at 450 nm was measured to detect human IgG bound to integrin αvβ6 on the solid phase.

Row | Binder | binding result
10 | RGDS (also called RGD peptide; RGD motif) [Peptide RGDS] | binds
